From PMC3905896 (Nucleic Acids Research, 2013)

T1: PtxS (assayed together with PtxR at Pgad) (Pseudomonas aeruginosa, UniProt G3XD97)
T1 sequence (G3XD97 1-340): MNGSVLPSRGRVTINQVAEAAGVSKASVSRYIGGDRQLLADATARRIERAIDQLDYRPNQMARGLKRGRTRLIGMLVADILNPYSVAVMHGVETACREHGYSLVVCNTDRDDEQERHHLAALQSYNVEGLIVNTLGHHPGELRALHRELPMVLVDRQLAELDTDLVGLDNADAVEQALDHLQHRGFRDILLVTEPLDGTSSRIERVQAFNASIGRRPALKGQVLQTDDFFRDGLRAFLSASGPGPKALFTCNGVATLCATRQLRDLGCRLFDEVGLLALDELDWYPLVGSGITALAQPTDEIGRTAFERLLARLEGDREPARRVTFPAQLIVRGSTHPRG

T2: PtxR (Pseudomonas aeruginosa, UniProt P72131 1-312)
T2 sequence (looked up): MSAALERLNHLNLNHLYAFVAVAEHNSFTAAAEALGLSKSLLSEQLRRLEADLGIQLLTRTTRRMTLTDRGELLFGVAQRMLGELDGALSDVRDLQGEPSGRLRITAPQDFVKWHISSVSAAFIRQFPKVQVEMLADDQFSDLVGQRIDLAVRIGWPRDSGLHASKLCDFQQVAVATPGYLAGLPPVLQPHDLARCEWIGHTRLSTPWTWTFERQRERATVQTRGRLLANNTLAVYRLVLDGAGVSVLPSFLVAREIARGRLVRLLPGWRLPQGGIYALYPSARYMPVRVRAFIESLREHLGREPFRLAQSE


Tests used:
[1] = biological target: T1, PtxS (assayed together with PtxR at Pgad); format: biochemical
PtxR = biological target: T2, PtxR; assay: ITC

Molecule | EC50 [1] | KD of the first binding event (PtxR) | KD of the second binding event (PtxR) | dH of the first binding event (PtxR) | dH of the second binding event (PtxR)
O=C(O)C(=O)[C@@H](O)[C@H](O)[C@H](O)CO [2-ketogluconate] | 78000 nM | – | – | – | –
PtxS (natural protein, Pseudomonas aeruginosa, UniProt G3XD97 1-340, looked up) MNGSVLPSRGRVTINQVAEAAGVSKASVSRYIGGDRQLLADATARRIERAIDQLDYRPNQMARGLKRGRTRLIGMLVADILNPYSVAVMHGVETACREHGYSLVVCNTDRDDEQERHHLAALQSYNVEGLIVNTLGHHPGELRALHRELPMVLVDRQLAELDTDLVGLDNADAVEQALDHLQHRGFRDILLVTEPLDGTSSRIERVQAFNASIGRRPALKGQVLQTDDFFRDGLRAFLSASGPGPKALFTCNGVATLCATRQLRDLGCRLFDEVGLLALDELDWYPLVGSGITALAQPTDEIGRTAFERLLARLEGDREPARRVTFPAQLIVRGSTHPRG | – | 12 ± 2 nM | 99 ± 8 nM | -27.3 ± 0.7 kcal/mol | -13 ± 0.8 kcal/mol
